Results: the nanobody polyreactivity screen of Harvey et al. (2022)

Assay: yeast display, Sf9 membrane polyspecificity reagent, FACS + sequencing; frameworks hold sequencing errors
In short: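 Genes from sorted yeast were amplified by colony PCR, read by MiSeq 2 × 250 sequencing and filtered on CDR length. These cells carried a synthetic nanobody library in Saccharomyces cerevisiae BJ5465 and were sorted by FACS into low and high (top ~1%) gates on anti-HA and streptavidin fluorescence. Polyreactivity is labelled according to the gate of origin.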
In the case of “QVQLVESGGGLVQAGGSLRLSCAASGSTFPYYTMGWYRQAPGKERELVAAIRYSGSSTYYADSVKGRFTISLDNAKNSVYLQMNSLKPEDTAVYSCAKTLWRRRGDRRYRVIEMDHWGQGTQVTVSS”, the “polyreactivity (PSR sort gate)” value is reported as “low polyreactivity”. For “QVQLVESGGGLVQAGGSLRLSCAASGSTFPYYTMGWYRQAPGKERELVAAITWRGGRTYYADSVKGRFTISRDNAKYTVYLQMNSLKPEDTAVYYCNAYGIDTGDYWGQGTQVTVSS”, the “polyreactivity (PSR sort gate)” value was “high polyreactivity”. For “QVQLVESGGGLVQAGGSLRLSCAASGSTFQDYAMGWYRQAPGKERELVAAISKRGGRTYYADSVKGRFTISRDNAKNTVYLQMNSLKPEETAVYYCNTYPVPGGVTYSYTGFDYWGQGTQVTVSS”, the “polyreactivity (PSR sort gate)” value was “high polyreactivity”. With “QVQLVESGGGLVQAGGSLRLSCAASGSTFQFNAMGWYRQAPGKEREFVAAITSSAGRTYYADSVKGRFTISRDNAKNTVYLQMNSLKPEDTAVYYCAATFYRRYVDLGYWGQGTQVTVSS” the “polyreactivity (PSR sort gate)” value was “high polyreactivity”. For “QVQLVESGGGLVQAGGSLRLSCAASGSTFQGNAMGWYRQAPGKERELVAAISSDGSTDYADSVKGRFTISRDNAKNTVYLQMNSLKPEDTAVYYCNRVSPGPDADLEFDYWGQGTQVTVSS”, the “polyreactivity (PSR sort gate)” value was “low polyreactivity”. With “QVQLVESGGGLVQAGGSLRLSCAASGSTFQIYAMGWYRQPPGKDRELVAANTSSSSTNYADSVKGRFTISRENAKNTVYLQMNSLKPEDTAVYYCAAAVSWRSNWYDYWGQGTQVTVSS” the “polyreactivity (PSR sort gate)” value was “low polyreactivity”. For “QVQLVESGGGLVQAGGSLRLSCAASGSTFQPNAMGWYRQAPGKERELVAAITGGDNTNYADSVKGRFTISRDNAKNTVYLQMNSLKPEDTAVYYCAAGGLGSRWYVGYDYWGQGTQVTVSS”, the “polyreactivity (PSR sort gate)” value was “low polyreactivity”. For “QVQLVESGGGLVQAGGSLRLSCAASGSTFQPYAMGWYRQAPGKEREFVATISGSAGSTYYADSVKGRFKISRDNAKNTVYLQMNSLKPEDTAVYYCNADSGWFGYDYWGQGTQVTVSS”, the “polyreactivity (PSR sort gate)” value was “low polyreactivity”. For “QVQLVESGGGLVQAGGSLRLSCAASGSTFQQYAMGWYRQAPGKERELVAAISWRGGSTYYADSVKGRFTISRDNAKNTVYFQMNSLKPEDTAFYYCAARYQPGGFSRYDYYYWGQGTQVTVSS”, the “polyreactivity (PSR sort gate)” value was “high polyreactivity”. For “QVQLVESGGGLVQAGGSLRLSCAASGSTFQRYAMGWYRQAPGKERELVAAISDGGSTKYADYVKGRFTISRDNAKNTVYLQMNRLKPEDTAVYYCAANYLSRYDYWGQGTQVTVSS”, the “polyreactivity (PSR sort gate)” value was “low polyreactivity”. With “QVQLVESGGGLVQAGGSLRLSCAASGSTFQRYAMGWYRQAPGKERELVAAISSRGGSTYYADSVKGRFTISRDNAKNTVYLQMNSLKPEDTAVYYCAALGHLRYDYWGQGTQVTVSS” the “polyreactivity (PSR sort gate)” value was “high polyreactivity”. With “QVQLVESGGGLVQAGGSLRLSCAASGSTFQSYAMGWSRPAPGKERELVAAISFSGGSTYYADSVKGRFTISRDHAKNTVYLQMNSLKPEDTAVYYCAADVAYVEYAYWGQGTQVTVSS” the “polyreactivity (PSR sort gate)” value was “low polyreactivity”. In the case of “QVQLVESGGGLVQAGGSLRLSCAASGSTFQTYAMGWYRQAPGKERELVASISYGVTTYYADSVKGRFTISRDNAKNTVYLQMNSLKPEDTAVYYCAREGYKWVYLSYGYWGQGTQVTVSS”, the “polyreactivity (PSR sort gate)” value is reported as “low polyreactivity”. In the case of “QVQLVESGGGLVQAGGSLRLSCAASGSTFQTYVMGWYRQAPGKERELVAAISSGGSTNYADSVKGRFTISRDNAKNTVYLQMISLKPEDTAVYYCAKRWPYFRRGKDGYWGQGTQVTVSS”, the “polyreactivity (PSR sort gate)” value is reported as “low polyreactivity”. With “QVQLVESGGGLVQAGGSLRLSCAASGSTFQVNAMGWYRQAPGKERELVASISGGSSTNYADSVKGRFTISRDNAKNTVYFQMNSLKPEDTAVYYCAADYLSGLRVAYDYWGQGTQVTVSS” the “polyreactivity (PSR sort gate)” value was “low polyreactivity”. With “QVQLVESGGGLVQAGGSLRLSCAASGSTFQVNAMGWYRQAPGQDRELVAAITYRTGRTYYADSVKGRCTISRDNAKNTGYLQMNSLKPEDTAVYYCAATAHSYYGVGMGYWGQGTQVTVSS” the “polyreactivity (PSR sort gate)” value was “high polyreactivity”. In the case of “QVQLVESGGGLVQAGGSLRLSCAASGSTFQVYAMGWYRQAPGKERELVAAIRYRDGNTYYADSVKGRFTISRDNAKNTVYLQMNSLKPEETAVYYCNARLYMPSGYRRSNGYESDYWGQGTQVTVSS”, the “polyreactivity (PSR sort gate)” value is reported as “high polyreactivity”. In the case of “QVQLVESGGGLVQAGGSLRLSCAASGSTFQYYPMGWYRQAPGKERELVAAISYRGSTYYADSVKGRFTISRDNAKNTVYLQMNRLKPEDTSVYYCAKGGTTWYWSGYRSIYFRYDYWGQGTQVTVSS”, the “polyreactivity (PSR sort gate)” value is reported as “high polyreactivity”. For “QVQLVESGGGLVQAGGSLRLSCAASGSTFRANAMGWYRQAPGKERELVAAIRGTGSTYYADSVKGRFTISRDNAKNTVYLQMNSLKPEDTAVYYCAARPGYLYSKYNYWGQGTQVTVSS”, the “polyreactivity (PSR sort gate)” value was “high polyreactivity”. With “QVQLVESGGGLVQAGGSLRLSCAASGSTFRAYAMGWYRQAPGKERELVAAISSGGSTYYADSVKGRFTISRDNAKITVYLQMNCLKPEDTAVYHCAKGWYYVSPYGYRKGVYYWGQGTKVTVSS” the “polyreactivity (PSR sort gate)” value was “high polyreactivity”. For “QVQLVESGGGLVQAGGSLRLSCAASGSTFRDNAMGWYRQAPGKERELVAAISRRGGNTYYADSVKGRFTISRDNAKNTVYLQMNSLKPEDTAVYYCAAEVKTSYSYTHDGYWGQGTQVTVSS”, the “polyreactivity (PSR sort gate)” value was “high polyreactivity”. For “QVQLVESGGGLVQAGGSLRLSCAASGSTFRDNAMGWYRQAPGKERELVAAITVIDGTTYYADSVKGRFTISRDYAKNTVYLQMNSLKPEDTAVYYCADDTIWYEYYYWGQGTQVTVSS”, the “polyreactivity (PSR sort gate)” value was “low polyreactivity”. With “QVQLVESGGGLVQAGGSLRLSCAASGSTFRENDMGWYRQAPGKERELVAALTFSGGSTYADSVKGRFTISRDNAKNTVYLQMNSLKPEDTAVYYCSADTLPAEFDYDYWGQGTQVTVSS” the “polyreactivity (PSR sort gate)” value was “low polyreactivity”. In the case of “QVQLVESGGGLVQAGGSLRLSCAASGSTFRFNAMGWYRQAPGKERELVAAITSTGSTYYADSVKGRFTISRDNAKNTVYLQMNSLKPEDTADYYCAATYPRYRATPRYYSWGQGTQVTVSS”, the “polyreactivity (PSR sort gate)” value is reported as “high polyreactivity”. With “QVQLVESGGGLVQAGGSLRLSCAASGSTFRFNAMGWYRQAPGKERELVATISYSSDSTYYAYSVKVRFTISRDNAKNTVYLQMNSLKPEDTAVYYCAADSGYARFDYWGQGTQVTVSS” the “polyreactivity (PSR sort gate)” value was “high polyreactivity”. With “QVQLVESGGGLVQAGGSLRLSCAASGSTFRFYAMGSYRQAPGKERELVASISRSGGSTYYADSVKGRFTISRDNAKNTVYLQMNSLKPEDTAVYYCAARILYHMDWGQGTQVTVSS” the “polyreactivity (PSR sort gate)” value was “high polyreactivity”. With “QVQLVESGGGLVQAGGSLRLSCAASGSTFRFYAMGWYRQAPGKERELVAAINGSGGSTYYADSVKGRFTISRDIAKNSVYLQMNSLKPEDTAVYYCAVLYRYGYDYWGQGTQVTVSS” the “polyreactivity (PSR sort gate)” value was “low polyreactivity”. In the case of “QVQLVESGGGLVQAGGSLRLSCAASGSTFRFYAMGWYRQAPGKERELVAAISKSGGITYYADSVKGRFTISRDNAKNTVYLQMNSLKPEDTAVYSCATVGLLSNFYARFNYWGQGTQVTVSS”, the “polyreactivity (PSR sort gate)” value is reported as “high polyreactivity”. For “QVQLVESGGGLVQAGGSLRLSCAASGSTFRFYAMGWYRQAPGKERELVAAISSRAGSTYYADSVKGRFTISRDNAKNTVYLQMNSLKPEDTAVYYCNARTYSYRGYNYWGQGTQVTVSS”, the “polyreactivity (PSR sort gate)” value was “high polyreactivity”. For “QVQLVESGGGLVQAGGSLRLSCAASGSTFRGNAMGWYRQAPGKERELVAAISESGTDTYYADSVKGRFTISRDNAKKTVYLLMNSLKPEDTAVYYCAKDYSGTYYAQYNYWGQGTQVTVSS”, the “polyreactivity (PSR sort gate)” value was “low polyreactivity”. For “QVQLVESGGGLVQAGGSLRLSCAASGSTFRGYAKGWNRQAPGKERELVAAISSRGARTHYADSVKGRFTISRDNAKNTVYLQMNSLKPEDTAVYYCAVGSPYYDGMDYWGQGTQVTVSS”, the “polyreactivity (PSR sort gate)” value was “low polyreactivity”. In the case of “QVQLVESGGGLVQAGGSLRLSCAASGSTFRGYAMGRYRQAPGKERELVAAITRNGGSTYYADSVKGRFTISRDNAKNTVYLQMNSLKPEDTAVFYCAAAKRRTVGVKYTFDYWGQGTQVTVSS”, the “polyreactivity (PSR sort gate)” value is reported as “high polyreactivity”. With “QVQLVESGGGLVQAGGSLRLSCAASGSTFRGYAMGWNRPAPGKETELVAGITKRGGSTYYADSVKGRFTISRDNAKNTVYLQMNSLKPEDTAVYYCAAGKHRQAYEHDYWGQGTQVTVSS” the “polyreactivity (PSR sort gate)” value was “high polyreactivity”. In the case of “QVQLVESGGGLVQAGGSLRLSCAASGSTFRGYAMGWYRHAPGKERELVAAITYISDSTYYADSVKGRFTISRDNAKNTVYLQMNSLKPEDTAVYYCIAYYDGDWRYTSQETGDHWGQGTQVTVSS”, the “polyreactivity (PSR sort gate)” value is reported as “low polyreactivity”. In the case of “QVQLVESGGGLVQAGGSLRLSCAASGSTFRGYAMGWYRQAPGKDRELVATISGSDGTTYYADSVQGRFTISRDNAKKTVYLQMNSLKPEDTAVYFCAAGETFEMYYWGQGTQVTVSS”, the “polyreactivity (PSR sort gate)” value is reported as “low polyreactivity”. For “QVQLVESGGGLVQAGGSLRLSCAASGSTFRGYAMGWYRQAPGKEREFVAAISRRGGTTYYADSVKGRFTISRDNAKNTVYLQMNSLKPEDTAVYYCNKVYYQHYLAFDYWGQGTQVTVSS”, the “polyreactivity (PSR sort gate)” value was “high polyreactivity”. In the case of “QVQLVESGGGLVQAGGSLRLSCAASGSTFRGYAMGWYRQAPGKEREIVAAISRRGGTTYYADSVKGRFTISRDNAKNTVYLQMNSLKPEDTAVYYCNKVYYQHYLAFDYWGQGTQVTVSS”, the “polyreactivity (PSR sort gate)” value is reported as “high polyreactivity”. In the case of “QVQLVESGGGLVQAGGSLRLSCAASGSTFRINAMGWYRQAPGKERELVADINSGGNTTYADSVKGRFTISRDNAKNTVYLQMNSLKPEDTAVYYCNAPYSFFWQQMNYWGQGTQVTVSS”, the “polyreactivity (PSR sort gate)” value is reported as “low polyreactivity”. For “QVQLVESGGGLVQAGGSLRLSCAASGSTFRIYAMGWYRQAPGKERELVAAIRRRGASTYYADSVKGRFTISRDNAKNTVYLQMISLKPEDTAVYYCAASYFWDRVPGRGIHDYWGQGTQVTVSS”, the “polyreactivity (PSR sort gate)” value was “high polyreactivity”. For “QVQLVESGGGLVQAGGSLRLSCAASGSTFRIYAMGWYRQAPGKERELVATITSGSSTYADSVKGRFTISRDNAKNTVYLQMNSLKPEDTAVYYCAARRKGGHISYGYDYWGQGTQVTVSS”, the “polyreactivity (PSR sort gate)” value was “high polyreactivity”. In the case of “QVQLVESGGGLVQAGGSLRLSCAASGSTFRKNAMGWYRQAPGKERELVASISISGGRTNYADSVKGRFTISRDNAKNTVYLQMNSLKPEDTAVYYCAAGYPWYQLPRPLEYYYWGQGTQVTVSS”, the “polyreactivity (PSR sort gate)” value is reported as “high polyreactivity”. In the case of “QVQLVESGGGLVQAGGSLRLSCAASGSTFRKYAMGWYRQAPGKERELVAAISKSGGSTYYADSVKGRFTISRDNAKNTVYLQMNSLKPEDTAVYYCNARKRTKLSYPKFDYWGQGTQVTVSS”, the “polyreactivity (PSR sort gate)” value is reported as “high polyreactivity”. With “QVQLVESGGGLVQAGGSLRLSCAASGSTFRLYAMGWYRPAPGKERELVAGISRTGTSTYYADSVKGRFTISRDNAKNTVYLQMNSLKPEDTAVYYCAAVRYWSDYDYWGQGTQVTVSS” the “polyreactivity (PSR sort gate)” value was “high polyreactivity”.
